{"source": "patent US20050215478A1", "about": "“Amino acid sequences capable of facilitating penetration across a biological barrier” (priority 2002, published 2005)", "test": "Formulation development: recovery of ^125I-IBW-002 after intestine loop injection, urine included (Example 2)", "type": "in vivo, mouse", "conditions": "intestinal loop; for recovered cpm/mouse: blood 60′, organs and urine; for blood 15′, total cpm in the blood / blood 30′, total cpm in the blood / blood 60′, total cpm in the blood / blood 5′, total cpm in the blood / blood 10′, total cpm in the blood / blood 20′, total cpm in the blood: calculated from 50 μl sample assuming 2 ml blood", "procedure": "The mice were anesthetized by i.p. injection of 0.05 ml of a mixture of 0.15 ml xylazine+0.85 ml of ketamin. A 2 cm long incision was made along the center of the abdomen, through the skin and abdominal wall. An intestine loop was gently pulled out through the incision and placed on wet gauze beside the animal. The loop remained intact through the entire procedure and was kept wet during the whole time. The tested compound was injected into the loop, 0.2 ml/ mouse, containing around 200,000 cpm, using a 26G needle. […] The animals were subsequently sacrificed. The following organs were removed: epididymal fat, kidneys, liver, lungs and brain. Radioactivity in each organ and in blood samples was counted. A 5 μl sample of the injected solution was counted to determine the total injected cpm per mouse.\nTo reach an improved formulation, a number of compounds were tested in experiments similar to that described in Example 1, with the following change: urine was collected and the measured radioactivity was added to that of the recovered tissues. […]\nThe total radioactive labeling injected per mouse was 195,900 cpm. Total cpm in the blood was calculated based on the 50 μl blood sample drawn out at different time points post injection, in the assumption that total blood volume of each mouse is 2 ml.\nThe total radioactive labeling injected per mouse was 143,000 cpm. Total cpm in the blood was calculated based on the 50 μl blood sample drawn out at different time points post injection, in the assumption that total blood volume of each mouse is 2 ml.", "key": {"[1]": {"conditions": "Table 5 formulation (PE 6,200), 125,320 cpm injected per mouse, individual mice, listed as 125I-IBW-002"}, "[2]": {"conditions": "Table 5 formulation (PE 6,200), 125,320 cpm injected per mouse, mean of 2 mice"}, "[3]": {"conditions": "Table 8 formulation (PE 6,200 + Taurodeoxycholic acid), 195,900 cpm injected per mouse, individual mice, listed as 125I-IBW-002"}, "[4]": {"conditions": "Table 8 formulation (PE 6,200 + Taurodeoxycholic acid), 195,900 cpm injected per mouse, mean of 4 mice"}, "[5]": {"conditions": "Table 11 formulation (Pluronic F-68 + Taurodeoxycholic acid), 143,000 cpm injected per mouse, individual mice, listed as 125I-IBW-002"}, "[6]": {"conditions": "Table 11 formulation (Pluronic F-68 + Taurodeoxycholic acid), 143,000 cpm injected per mouse, mean of 4 mice"}}, "note": "Where “and” joins values, the source holds several entries; their conditions need not be identical. Equal entries are not always repeated.", "data": [{"substance": "Ac-NYYDITLALAGICQSARLVQQLAGGGKGGK-NH2 (Ac-NYYDITLALAGICQSARLVQQLAGGGKGGK-NH2; also: 125I label) [IBW-002, ^125I-labeled using the Bolton Hunter Reagent for in vivo tests]", "values": [{"measurement": "recovered cpm/mouse", "setting": "[1]", "value": "35,759 cpm and 40,067 cpm"}, {"measurement": "recovered cpm/mouse", "setting": "[2]", "value": "37,913 cpm"}, {"measurement": "blood 15′, total cpm in the blood", "setting": "[1]", "value": "19,920 cpm and 19,560 cpm"}, {"measurement": "blood 30′, total cpm in the blood", "setting": "[1]", "value": "18,800 cpm and 15,880 cpm"}, {"measurement": "blood 60′, total cpm in the blood", "setting": "[1]", "value": "14,560 cpm and 10,960 cpm"}, {"measurement": "blood 15′, total cpm in the blood", "setting": "[2]", "value": "19,740 cpm"}, {"measurement": "blood 30′, total cpm in the blood", "setting": "[2]", "value": "17,340 cpm"}, {"measurement": "blood 60′, total cpm in the blood", "setting": "[2]", "value": "12,760 cpm"}, {"measurement": "blood/injected cpm (%), 15′", "setting": "[1]", "value": "15.90% and 15.61%"}, {"measurement": "blood/injected cpm (%), 30′", "setting": "[1]", "value": "15.00% and 12.67%"}, {"measurement": "blood/injected cpm (%), 60′", "setting": "[1]", "value": "11.62% and 8.75%"}, {"measurement": "brain, cpm recovered", "setting": "[1]", "value": "95 cpm and 110 cpm"}, {"measurement": "epididimal fat, cpm recovered", "setting": "[1]", "value": "321 cpm and 288 cpm"}, {"measurement": "kidney, cpm recovered", "setting": "[1]", "value": "2,564 cpm and 3,799 cpm"}, {"measurement": "liver, cpm recovered", "setting": "[1]", "value": "2,994 cpm and 2,786 cpm"}, {"measurement": "lungs, cpm recovered", "setting": "[1]", "value": "476 cpm and 377 cpm"}, {"measurement": "recovered cpm/injected cpm (%)", "setting": "[1]", "value": "28.53% and 31.97%"}, {"measurement": "urine, cpm recovered", "setting": "[1]", "value": "14,749 cpm and 21,747 cpm"}, {"measurement": "blood/injected cpm (%), 15′", "setting": "[2]", "value": 15.75, "unit": "%"}, {"measurement": "blood/injected cpm (%), 30′", "setting": "[2]", "value": 13.84, "unit": "%"}, {"measurement": "blood/injected cpm (%), 60′", "setting": "[2]", "value": 10.18, "unit": "%"}, {"measurement": "brain, cpm recovered", "setting": "[2]", "value": 103, "unit": "cpm"}, {"measurement": "epididimal fat, cpm recovered", "setting": "[2]", "value": 305, "unit": "cpm"}, {"measurement": "kidney, cpm recovered", "setting": "[2]", "value": "3,182 cpm"}, {"measurement": "liver, cpm recovered", "setting": "[2]", "value": "2,890 cpm"}, {"measurement": "lungs, cpm recovered", "setting": "[2]", "value": 427, "unit": "cpm"}, {"measurement": "recovered cpm/injected cpm (%)", "setting": "[2]", "value": 30.25, "unit": "%"}, {"measurement": "urine, cpm recovered", "setting": "[2]", "value": "18,248 cpm"}, {"measurement": "recovered cpm/mouse", "setting": "[3]", "value": "93,914 cpm and 68,380 cpm and 89,969 cpm and 90,520 cpm"}, {"measurement": "recovered cpm/mouse", "setting": "[4]", "value": "85,446 cpm"}, {"measurement": "blood 15′, total cpm in the blood", "setting": "[3]", "value": "40,600 cpm and 39,440 cpm and 51,920 cpm and 36,200 cpm"}, {"measurement": "blood 30′, total cpm in the blood", "setting": "[3]", "value": "37,440 cpm and 31,720 cpm and 48,440 cpm and 34,720 cpm"}, {"measurement": "blood 60′, total cpm in the blood", "setting": "[3]", "value": "33,880 cpm and 23,080 cpm and 40,840 cpm and 30,200 cpm"}, {"measurement": "blood 15′, total cpm in the blood", "setting": "[4]", "value": "42,040 cpm"}, {"measurement": "blood 30′, total cpm in the blood", "setting": "[4]", "value": "38,080 cpm"}, {"measurement": "blood 60′, total cpm in the blood", "setting": "[4]", "value": "32,000 cpm"}, {"measurement": "blood/injected cpm (%), 15′", "setting": "[3]", "value": "20.72% and 20.13% and 26.50% and 18.48%"}, {"measurement": "blood/injected cpm (%), 30′", "setting": "[3]", "value": "19.11% and 16.19% and 24.73% and 17.72%"}, {"measurement": "blood/injected cpm (%), 60′", "setting": "[3]", "value": "17.29% and 11.78% and 20.85% and 15.42%"}, {"measurement": "brain, cpm recovered", "setting": "[3]", "value": "206 cpm and 176 cpm and 284 cpm and 173 cpm"}, {"measurement": "epididimal fat, cpm recovered", "setting": "[3]", "value": "1,081 cpm and 805 cpm and 903 cpm and 846 cpm"}, {"measurement": "kidney, cpm recovered", "setting": "[3]", "value": "9,513 cpm and 7,878 cpm and 10,661 cpm and 8,929 cpm"}, {"measurement": "liver, cpm recovered", "setting": "[3]", "value": "8,194 cpm and 5,154 cpm and 9,615 cpm and 8,708 cpm"}, {"measurement": "lungs, cpm recovered", "setting": "[3]", "value": "1,048 cpm and 636 cpm and 1,221 cpm and 1,303 cpm"}, {"measurement": "recovered cpm/injected cpm (%)", "setting": "[3]", "value": "47.94% and 34.91% and 45.42% and 46.21%"}, {"measurement": "urine, cpm recovered", "setting": "[3]", "value": "39,992 cpm and 30,651 cpm and 25,445 cpm and 40,361 cpm"}, {"measurement": "blood/injected cpm (%), 15′", "setting": "[4]", "value": 21.46, "unit": "%"}, {"measurement": "blood/injected cpm (%), 30′", "setting": "[4]", "value": 19.44, "unit": "%"}, {"measurement": "blood/injected cpm (%), 60′", "setting": "[4]", "value": 16.33, "unit": "%"}, {"measurement": "brain, cpm recovered", "setting": "[4]", "value": 210, "unit": "cpm"}, {"measurement": "epididimal fat, cpm recovered", "setting": "[4]", "value": 909, "unit": "cpm"}, {"measurement": "kidney, cpm recovered", "setting": "[4]", "value": "9,245 cpm"}, {"measurement": "liver, cpm recovered", "setting": "[4]", "value": "7,918 cpm"}, {"measurement": "lungs, cpm recovered", "setting": "[4]", "value": "1,052 cpm"}, {"measurement": "recovered cpm/injected cpm (%)", "setting": "[4]", "value": 43.62, "unit": "%"}, {"measurement": "urine, cpm recovered", "setting": "[4]", "value": "34,112 cpm"}, {"measurement": "recovered cpm/mouse", "setting": "[5]", "value": "78,079 cpm and 67,291 cpm and 64,828 cpm and 79,362 cpm"}, {"measurement": "recovered cpm/mouse", "setting": "[6]", "value": "72,390 cpm"}, {"measurement": "blood 5′, total cpm in the blood", "setting": "[5]", "value": "29,400 cpm and 29,120 cpm and 34,240 cpm and 32,920 cpm"}, {"measurement": "blood 10′, total cpm in the blood", "setting": "[5]", "value": "26,680 cpm and 32,320 cpm and 28,200 cpm and 27,760 cpm"}, {"measurement": "blood 20′, total cpm in the blood", "setting": "[5]", "value": "20,280 cpm and 30,960 cpm and 27,240 cpm and 21,800 cpm"}, {"measurement": "blood 60′, total cpm in the blood", "setting": "[5]", "value": "11,880 cpm and 22,840 cpm and 16,280 cpm and 14,440 cpm"}, {"measurement": "blood 5′, total cpm in the blood", "setting": "[6]", "value": "31,420 cpm"}, {"measurement": "blood 10′, total cpm in the blood", "setting": "[6]", "value": "28,740 cpm"}, {"measurement": "blood 20′, total cpm in the blood", "setting": "[6]", "value": "25,070 cpm"}, {"measurement": "blood 60′, total cpm in the blood", "setting": "[6]", "value": "16,360 cpm"}, {"measurement": "blood/injected cpm (%), 5′", "setting": "[5]", "value": "20.56% and 20.36% and 23.94% and 23.02%"}, {"measurement": "blood/injected cpm (%), 10′", "setting": "[5]", "value": "18.66% and 22.60% and 19.72% and 19.41%"}, {"measurement": "blood/injected cpm (%), 20′", "setting": "[5]", "value": "14.18% and 21.65% and 19.05% and 15.24%"}, {"measurement": "blood/injected cpm (%), 60′", "setting": "[5]", "value": "8.31% and 15.97% and 11.38% and 10.10%"}, {"measurement": "brain, cpm recovered", "setting": "[5]", "value": "76 cpm and 106 cpm and 94 cpm and 74 cpm"}, {"measurement": "epididimal fat, cpm recovered", "setting": "[5]", "value": "375 cpm and 591 cpm and 462 cpm and 465 cpm"}, {"measurement": "kidney, cpm recovered", "setting": "[5]", "value": "2,397 cpm and 4,407 cpm and 5,018 cpm and 5,772 cpm"}, {"measurement": "liver, cpm recovered", "setting": "[5]", "value": "3,516 cpm and 6,546 cpm and 6,561 cpm and 4,807 cpm"}, {"measurement": "lungs, cpm recovered", "setting": "[5]", "value": "393 cpm and 643 cpm and 582 cpm and 533 cpm"}, {"measurement": "recovered cpm/injected cpm (%)", "setting": "[5]", "value": "54.60% and 47.06% and 45.33% and 55.50%"}, {"measurement": "urine, cpm recovered", "setting": "[5]", "value": "59,442 cpm and 32,158 cpm and 35,831 cpm and 53,271 cpm"}, {"measurement": "blood/injected cpm (%), 5′", "setting": "[6]", "value": 21.97, "unit": "%"}, {"measurement": "blood/injected cpm (%), 10′", "setting": "[6]", "value": 20.10, "unit": "%"}, {"measurement": "blood/injected cpm (%), 20′", "setting": "[6]", "value": 17.53, "unit": "%"}, {"measurement": "blood/injected cpm (%), 60′", "setting": "[6]", "value": 11.44, "unit": "%"}, {"measurement": "brain, cpm recovered", "setting": "[6]", "value": 88, "unit": "cpm"}, {"measurement": "epididimal fat, cpm recovered", "setting": "[6]", "value": 473, "unit": "cpm"}, {"measurement": "kidney, cpm recovered", "setting": "[6]", "value": "4,399 cpm"}, {"measurement": "liver, cpm recovered", "setting": "[6]", "value": "5,358 cpm"}, {"measurement": "lungs, cpm recovered", "setting": "[6]", "value": 538, "unit": "cpm"}, {"measurement": "recovered cpm/injected cpm (%)", "setting": "[6]", "value": 50.62, "unit": "%"}, {"measurement": "urine, cpm recovered", "setting": "[6]", "value": "45,176 cpm"}]}]}
